# Results as given in PMC10144703, “Molecular Mechanism of Sirtuin 1 Inhibition by Human Immunodeficiency Virus 1 Tat Protein” (Life, 2023).
# B1: Tat-Cys^−: Recombinant 86-residue HIV1 Zaire 2 Tat with C22S, C25A, C27A, C30S, C31A, C34S, and C37A (protein)
# chain: MDPVDPNIEPWNHPGSQPKTASNRAHAKKSAYHSQVAFITKGLGISYGRKKRRQRRRPSQGGQTHQDPIPKQPSSQPRGDPTGPKE
# Key:
# mini-Sirt1 = biological target: T1, mini-Sirt1 (Homo sapiens, UniProt Q96EB6); assay: 2D-(1H, 15N)-HSQC NMR titration of Tat-Cys^− with mini-Sirt1; assay type: binding; conditions: 58 µM Tat-Cys^−, 2-fold molar excess mini-Sirt1, pH 6.4, 298 K
# T1 construct: aa 183-505-(GGGS)2-641-665; made in house; host or cells: E. coli CodonPlus(DE3)
# T1 sequence (Q96EB6 with tags, fused parts or gaps limits assumed): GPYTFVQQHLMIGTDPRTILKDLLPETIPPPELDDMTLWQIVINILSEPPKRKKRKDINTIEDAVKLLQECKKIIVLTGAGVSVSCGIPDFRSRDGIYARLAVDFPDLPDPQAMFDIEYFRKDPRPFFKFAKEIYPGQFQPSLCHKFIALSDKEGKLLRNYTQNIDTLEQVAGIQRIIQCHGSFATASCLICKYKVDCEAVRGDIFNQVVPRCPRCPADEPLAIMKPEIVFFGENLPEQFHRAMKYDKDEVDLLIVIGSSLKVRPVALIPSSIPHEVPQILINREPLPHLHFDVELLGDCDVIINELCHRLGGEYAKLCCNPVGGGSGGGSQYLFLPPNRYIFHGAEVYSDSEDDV
# Experimental: NMR titration experiments were performed by stepwise addition of unlabeled mini-Sirt1 (stock concentration 260 µM) to 100 µM ^15N-labeled Tat-Cys^− in 150 mM sodium chloride, and 10 mM potassium phosphate (pH 6.4). Spectra for 2D-(^1H, ^15N)-HSQC NMR were recorded at 298 K on a Bruker 700 MHz spectrometer equipped with a cryogenically-cooled probe.
# [1] = test system: mini-Sirt1-∆ESA (aa 183–505); assay: Inhibition of mini-Sirt1-∆ESA (ac-p53 substrate); assay type: biochemical, human; conditions: dose-dependent, 100 µM ac-p53, n = 3; relative to mini-Sirt1
# Excerpt: (§1) A human mini-Sirt1 construct (aa 183-505-(GGGS)2-641-665), as described in [27], was generated in a modified pET-19b with a TEV cleavage site. This construct and human full-length Sirt1 (fl-Sirt1) in pET-15b, Sirt1-(183-664) and Sirt1-(214-664) in pET-15b, mini-Sirt1-∆SBD (aa 214-505-(GGGS)2-641-665) and mini-Sirt1-∆ESA (aa 183–505) in a modified pET-19b with TEV cleavage site, Sirt2-(43-356) in a modified pET-19b with a His6-Sumo tag, Sirt3-(93-399) in a modified pET-32a with Trx-His6 tag and TEV cleavage site, hSirt3-(118-399) in pVFT3S (Sungkyunkwan University, Seoul, Republic of Korea) with His6-Trx tag and TEV cleavage site, Sirt5-(34-302) in pET-151/D-TOPO, and Sirt6-(1-355) in pQE80L.1 were purified as described. […]
# (§2) Continuous coupled enzymatic sirtuin activity assays were conducted as described. […] Reactions were monitored for 1 h at room temperature by absorption spectroscopy at 340 nm in a UV/vis plate reader (BioTek). The slope for the linear range (typically 5–25 min) was evaluated after background correction with measurements without NAD^+. Additional control reactions were run by either omitting enzyme or omitting peptide substrate to ensure that the signal measured reflects the NAD+-dependent deacetylation activity of the sirtuin.
# human Sirt6 = biological target: T2, human Sirt6 (Homo sapiens, UniProt Q8N6T7); assay: Continuous coupled enzymatic assay, Sirt6; assay type: biochemical; conditions: 65 μM Tat-Cys^−, myristoylated peptide at substrate Km, n = 3
# T2 construct: Sirt6-(1-355) in pQE80L.1; made in house; host or cells: E. coli CodonPlus(DE3)
# Excerpt: as §1, §2
# [2] = test system: mini-Sirt1-∆SBD (aa 214-505-(GGGS)2-641-665); assay: Inhibition of mini-Sirt1-∆SBD (ac-p53 substrate); assay type: biochemical, human; conditions: dose-dependent, 100 µM ac-p53, n = 3; relative to mini-Sirt1
# Excerpt: as §1, §2
# T2 sequence (Q8N6T7 whole entry): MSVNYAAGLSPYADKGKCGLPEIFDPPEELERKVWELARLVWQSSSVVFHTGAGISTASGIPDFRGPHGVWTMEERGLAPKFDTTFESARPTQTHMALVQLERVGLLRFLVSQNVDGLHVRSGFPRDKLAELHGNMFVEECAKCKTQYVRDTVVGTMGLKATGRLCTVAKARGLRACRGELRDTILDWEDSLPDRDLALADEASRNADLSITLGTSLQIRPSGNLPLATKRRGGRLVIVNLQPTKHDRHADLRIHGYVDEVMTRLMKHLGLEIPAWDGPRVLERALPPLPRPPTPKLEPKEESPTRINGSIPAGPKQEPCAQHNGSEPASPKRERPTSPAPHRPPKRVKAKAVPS
molecule,measurement,setting,value
B1,HSQC signal changes on mini-Sirt1 addition,mini-Sirt1,a large number of HSQC signals to disappear
same,HSQC signals unchanged on mini-Sirt1 addition,mini-Sirt1,mostly to Tat residues 63–87
same,"inhibitory effects, mini-Sirt1-∆ESA",[1],unchanged inhibitory effects
same,"inhibitory effect on Sirt6, continuous assay",human Sirt6,no statistically significant effect was observed
same,"inhibitory effects, mini-Sirt1-∆SBD",[2],unchanged inhibitory effects
